Data from PMC2118495.
Read-outs that look alike come from different tables or passages of the source. Values belong to the molecule of their own block, whether it stands above or below them.

Experiments:
Assay in all cases: native gel or EMSA
[1] = target: human TCRγδ (clonotypic heterodimer of the γδ TCR) (human (endogenous in PBMCs and γδ T cell clones))
[2] = target: mouse TCRγδ (transgenic TCRVγ1.1 and TCRVδ6 chains) (mouse)
[3] = target: mouse TCRγδ (transgenic TCRVγ1.1 and TCRVδ6 chains) (mouse); remark: listed apart in the source

stoichiometry N [1]: 1
Molecule: human CD3γ (from UniProt P09693 23-182) (natural protein)

stoichiometry N [2]: 2
Molecule: mouse CD3ε (from UniProt P22646 22-189) (natural protein)

stoichiometry N [3]: 2
B1: mouse CD3γ (natural protein)
chain: QTNKAKNLVQVDGSRGDGSVLLTCGLTDKTIKWLKDGSIISPLNATKNTWNLGNNAKDPRGTYQCQGAKETSNPLQVYYRMCENCIELNIGTISGFIFAEVISIFFLALGVYLIAGQDGVRQSRASDKQTLLQNEQLYQPLKDREYDQYSHLQGNQLRKK

The next lines start with the molecule.

Molecule: human CD3δ (from UniProt P04234 22-171) (natural protein)
stoichiometry N [1]: 1

Molecule: human CD3ε (from UniProt P07766 23-207) (natural protein)
stoichiometry N [1]: 2

Molecule: human ζ chain of the TCR (ζζ dimer) (from UniProt P20963 22-164) (natural protein)
stoichiometry N [1]: 2
